Assay results as given in patent US20140274782A1, “AFFINITY REAGENTS AND METHODS FOR DETECTION, PURIFICATION, AND PROTEOMIC ANALYSIS OF METHYLATED PROTEINS” (The Board of Trustees of the Leland Stanford Junior …, priority 2013, published 2014).

T1: G9a and GLP (Homo sapiens, UniProt Q96KQ7+Q9H9B1)
T1 sequence (Q96KQ7 2-1210 limits assumed): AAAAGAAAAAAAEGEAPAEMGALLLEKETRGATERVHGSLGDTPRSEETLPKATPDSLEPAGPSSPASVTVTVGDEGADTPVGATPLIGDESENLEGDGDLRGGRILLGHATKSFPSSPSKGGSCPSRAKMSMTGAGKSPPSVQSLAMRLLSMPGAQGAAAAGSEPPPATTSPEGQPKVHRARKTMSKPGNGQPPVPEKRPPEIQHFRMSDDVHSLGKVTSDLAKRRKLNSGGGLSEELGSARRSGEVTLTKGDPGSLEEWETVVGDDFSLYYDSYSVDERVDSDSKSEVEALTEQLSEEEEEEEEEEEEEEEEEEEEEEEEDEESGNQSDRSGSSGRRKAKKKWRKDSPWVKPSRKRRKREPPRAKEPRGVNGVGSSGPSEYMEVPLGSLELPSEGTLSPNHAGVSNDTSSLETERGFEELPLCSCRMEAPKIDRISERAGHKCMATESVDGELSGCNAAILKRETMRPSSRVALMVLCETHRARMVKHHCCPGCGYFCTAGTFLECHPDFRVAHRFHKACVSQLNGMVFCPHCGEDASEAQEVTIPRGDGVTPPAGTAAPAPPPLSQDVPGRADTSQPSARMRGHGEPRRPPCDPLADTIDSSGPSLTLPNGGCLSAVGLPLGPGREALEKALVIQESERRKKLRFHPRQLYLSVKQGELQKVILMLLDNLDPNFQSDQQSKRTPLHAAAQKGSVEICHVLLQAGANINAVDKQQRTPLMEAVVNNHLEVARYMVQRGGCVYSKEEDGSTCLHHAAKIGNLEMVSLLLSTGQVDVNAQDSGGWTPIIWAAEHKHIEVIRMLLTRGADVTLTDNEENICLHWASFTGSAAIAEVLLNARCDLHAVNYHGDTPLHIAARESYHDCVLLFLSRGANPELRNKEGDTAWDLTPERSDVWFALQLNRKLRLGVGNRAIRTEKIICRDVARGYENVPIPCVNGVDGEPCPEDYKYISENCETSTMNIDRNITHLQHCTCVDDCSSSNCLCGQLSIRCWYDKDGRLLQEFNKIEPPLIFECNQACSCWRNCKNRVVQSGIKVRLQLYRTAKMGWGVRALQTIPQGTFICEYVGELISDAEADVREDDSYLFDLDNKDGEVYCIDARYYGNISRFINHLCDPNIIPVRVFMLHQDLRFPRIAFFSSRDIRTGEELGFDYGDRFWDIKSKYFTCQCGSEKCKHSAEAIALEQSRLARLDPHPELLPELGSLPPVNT
T1 sequence (Q9H9B1 2-1298 limits assumed): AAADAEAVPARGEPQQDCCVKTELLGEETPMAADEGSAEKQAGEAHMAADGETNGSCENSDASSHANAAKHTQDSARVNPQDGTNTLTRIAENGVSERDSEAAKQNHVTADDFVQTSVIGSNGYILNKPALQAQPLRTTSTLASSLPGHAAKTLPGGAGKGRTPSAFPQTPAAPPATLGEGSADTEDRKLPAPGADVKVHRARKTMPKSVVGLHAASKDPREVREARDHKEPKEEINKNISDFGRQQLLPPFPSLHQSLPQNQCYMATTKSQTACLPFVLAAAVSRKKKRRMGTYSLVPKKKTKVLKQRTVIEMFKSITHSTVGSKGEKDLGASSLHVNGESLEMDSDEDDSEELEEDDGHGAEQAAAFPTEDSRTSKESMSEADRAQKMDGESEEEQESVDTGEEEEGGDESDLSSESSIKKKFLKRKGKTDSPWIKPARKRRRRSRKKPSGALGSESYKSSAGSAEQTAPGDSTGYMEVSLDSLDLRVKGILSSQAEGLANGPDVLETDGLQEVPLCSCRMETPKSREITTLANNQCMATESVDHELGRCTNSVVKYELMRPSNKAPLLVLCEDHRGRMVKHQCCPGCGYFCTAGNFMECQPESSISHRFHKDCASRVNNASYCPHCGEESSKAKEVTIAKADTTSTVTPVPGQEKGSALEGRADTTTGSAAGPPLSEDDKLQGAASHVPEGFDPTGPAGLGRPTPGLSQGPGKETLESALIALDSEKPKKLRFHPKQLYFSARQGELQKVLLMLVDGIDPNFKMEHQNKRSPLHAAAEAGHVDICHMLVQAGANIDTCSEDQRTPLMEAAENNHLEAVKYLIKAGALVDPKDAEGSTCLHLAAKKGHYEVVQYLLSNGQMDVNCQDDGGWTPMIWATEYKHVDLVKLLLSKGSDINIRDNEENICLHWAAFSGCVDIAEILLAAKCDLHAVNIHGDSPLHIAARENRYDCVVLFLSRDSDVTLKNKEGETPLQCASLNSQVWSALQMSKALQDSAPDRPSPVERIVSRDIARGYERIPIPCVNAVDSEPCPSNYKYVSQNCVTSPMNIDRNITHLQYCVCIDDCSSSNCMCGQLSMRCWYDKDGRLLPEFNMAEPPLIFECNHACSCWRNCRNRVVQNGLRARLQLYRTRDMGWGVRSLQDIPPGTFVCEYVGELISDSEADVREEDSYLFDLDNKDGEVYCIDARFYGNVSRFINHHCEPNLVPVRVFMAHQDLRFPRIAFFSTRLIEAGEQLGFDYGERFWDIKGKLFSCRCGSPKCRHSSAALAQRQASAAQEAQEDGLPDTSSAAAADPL


How the values were obtained:
G9a and GLP = target: T1, G9a and GLP; assay: Triple SILAC pull-down after UNC0638 treatment of 293T cells, DMSO/UNC0638 ratio of protein captured by 3×MBT; format: cell-based; set-up: cells were treated for 24 hours with UNC0638 at 2.5 μM or DMSO vehicle control; endogenous in cells; host or cells: HEK 293T; details: for Relative to UNC0638 UNC Heavy / Relative to UNC0638 UNC Light: SILAC ratio DMSO/UNC0638 of protein pulled down with 3xMBT; for Relative to UNC0638 UNC Heavy: UNC0638 in heavy SILAC media; for Relative to UNC0638 UNC Light: UNC0638 in light SILAC media; for Relative to UNC0638 Average: average of UNC Light and UNC Heavy experiments;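 for all read-outs here: mass spectrometry (Q-Exactive) SILAC quantitation, DMSO/UNC0638 ratio computed after subtracting 3×MBTD355N mutant pull-down background, only proteins with at least twofold 3×MBT over mutant signal considered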
3×MBT domain of L3MBTL1 = assay: Triple SILAC pull-down, 3xMBT/3xMBTD355N ratio (cytoplasmic, nuclear and chromatin fractions of 293T cells); format: binding, human; details: SILAC ratio, pull-down 3xMBT vs 3xMBTD355N; for 3xMBT/D355N UNC Heavy: experiment with UNC0638 in heavy SILAC media; for 3xMBT/D355N UNC Light: experiment with UNC0638 in light SILAC media;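 for all read-outs here: proteins quantified with MaxQuant, requiring at least two unique peptides and quantification in both label directions, normalized to the mean of proteins from a digested loading control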

Row | Relative to UNC0638 UNC Heavy (G9a and GLP) | Relative to UNC0638 UNC Light (G9a and GLP) | Relative to UNC0638 Average (G9a and GLP) | Molecule | 3xMBT/D355N UNC Heavy (3×MBT domain of L3MBTL1) | 3xMBT/D355N UNC Light (3×MBT domain of L3MBTL1)
1 | 0.17 log base 2 | 0.33 log base 2 | 0.25 log base 2 | SF3B2 (protein, UniProt Q13435 1-895, looked up) Splicing factor 3B subunit 2: MATEHPEPPKAELQLPPPPPPGHYGAWAAQELQAKLAEIGAPIQGNREELVERLQSYTRQTGIVLNRPVLRGEDGDKAAPPPMSAQLPGIPMPPPPLGLPPLQPPPPPPPPPPGLGLGFPMAHPPNLGPPPPLRVGEPVALSEEERLKLAQQQAALLMQQEERAKQQGDHSLKEHELLEQQKRAAVLLEQERQQEIAKMGTPVPRPPQDMGQIGVRTPLGPRVAAPVGPVGPTPTVLPMGAPVPRPRGPPPPPGDENREMDDPSVGPKIPQALEKILQLKESRQEEMNSQQEEEEMETDARSSLGQSASETEEDTVSVSKKEKNRKRRNRKKKKKPQRVRGVSSESSGDREKDSTRSRGSDSPAADVEIEYVTEEPEIYEPNFIFFKRIFEAFKLTDDVKKEKEKEPEKLDKLENSAAPKKKGFEEEHKDSDDDSSDDEQEKKPEAPKLSKKKLRRMNRFTVAELKQLVARPDVVEMHDVTAQDPKLLVHLKATRNSVPVPRHWCFKRKYLQGKRGIEKPPFELPDFIKRTGIQEMREALQEKEEQKTMKSKMREKVRPKMGKIDIDYQKLHDAFFKWQTKPKLTIHGDLYYEGKEFETRLKEKKPGDLSDELRISLGMPVGPNAHKVPPPWLIAMQRYGPPPSYPNLKIPGLNSPIPESCSFGYHAGGWGKPPVDETGKPLYGDVFGTNAAEFQTKTEEEEIDRTPWGELEPSDEESSEEEEEEESDEDKPDETGFITPADSGLITPGGFSSVPAGMETPELIELRKKKIEEAMDGSETPQLFTVLPEKRTATVGGAMMGSTHIYDMSTVMSRKGPAPELQGVEVALAPEELELDPMAMTQKYEEHVREQQAQVEKEDFSDMVAEHAAKQKQKKRKAQPQDSRGGSKKYKEFKF | 3.89 log base 2 | 3.33 log base 2
2 | 0.18 log base 2 | 0.32 log base 2 | 0.25 log base 2 | HNRNPH2 (protein, UniProt P55795 1-449, looked up) Heterogeneous nuclear …: MMLSTEGREGFVVKVRGLPWSCSADEVMRFFSDCKIQNGTSGIRFIYTREGRPSGEAFVELESEEEVKLALKKDRETMGHRYVEVFKSNSVEMDWVLKHTGPNSPDTANDGFVRLRGLPFGCSKEEIVQFFSGLEIVPNGMTLPVDFQGRSTGEAFVQFASQEIAEKALKKHKERIGHRYIEIFKSSRAEVRTHYDPPRKLMAMQRPGPYDRPGAGRGYNSIGRGAGFERMRRGAYGGGYGGYDDYGGYNDGYGFGSDRFGRDLNYCFSGMSDHRYGDGGSSFQSTTGHCVHMRGLPYRATENDIYNFFSPLNPMRVHIEIGPDGRVTGEADVEFATHEDAVAAMAKDKANMQHRYVELFLNSTAGTSGGAYDHSYVELFLNSTAGASGGAYGSQMMGGMGLSNQSSYGGPASQQLSGGYGGGYGGQSSMSGYDQVLQENSSDYQSNLA | 1.02 log base 2 | 2.68 log base 2
